From publication PMC8604678, “The MttB superfamily member MtyB from the human gut symbiont Eubacterium limosum is a cobalamin-dependent γ-butyrobetaine methyltransferase” (The Journal of Biological Chemistry, 2021)

What was measured:
[1] = substrate: C[N+](C)(C)CCCC(=O)[O-]; test: UV-visible spectrophotometric MtqC methylation assay; assay type: biochemical, Eubacterium limosum; settings: ATP, Ti(III)citrate, pH 7.2, 37 °C, anoxic
[2] = substrate: C[N+](C)(C)C[C@H](O)CC(=O)O; test: as above; assay type: biochemical, Eubacterium limosum; settings: methyl acceptor Co(I)-MtqC 15 μM, RamQ 5 μM, ATP, Ti(III)citrate, pH 7.2, 37 °C, anoxic
[3] = methyl acceptor Co(I)-MtqC 30 μM, RamQ 5 μM
[4] = methyl acceptor Co(I)-MtqC 56 μM, RamQ 4.5 μM

B1: MtyB (Eubacterium limosum) (protein)
chain: MLKGNLFTTFYSKDDIELIHESVLRVFNEVGVKFEYEEALELFKKHGARVEGDLVFIPEELLNKALSTIPESFEIVGPESKLEIGIGKGLVVAPTNGCPNLEDWDGNYRQTNADDLENFYKIINTSDVYGISSQVAADIPGFENCPTESALAQMAMMAKYSRKPMYNILGITPHNYKRGNAREGARECVQLIKKYMDNFDDYVCYSGMCVLPPLTVGTDALEHYFAFAEEKQPITITTCSMTNMTAPPSLMGSIVADFANMLAVAVMIQLIEPGLPVILSPFSSVSDMREVRLMTGAPEFLMIMSGHIAMGDFYRIPVRCSGALADGFTYDYQAGVESTLGALAVSLSNACILPHASGDLSNFNLLSFPKFMMDEEMLRYMKRLHDGVAISEKKANVELIKKVGPRGVYLKGRTPKDYREETYLTSPVFNRGTCNEEGRAATPPIQERAYKVYKERIESFELPDMTQAQKDLLNEHLPEKFKIK
notes: C-terminal hexahistidine tag, codon-optimized gene in pETDuet-1 co-expressed with mtqC in E. coli Tuner(DE3), separated from MtqC by anion exchange
Q: Which Km [1, 3] does the source give for B1 here?
A: 3.5 ± 0.7 mM

Q: And the kcat [1, 3]?
A: 3 ± 0.167 s⁻¹

Q: What about the Km [2] of the same protein?
A: 4.0 ± 0.7 mM

Q: What about the kcat [2] of the same protein?
A: 6.78 ± 0.442 s⁻¹

B2: MtcB (Eubacterium limosum) (protein)
chain: MIRNSLTDVFFAKDDVENLHEGVLRVLSKVGVKIENDEALGIFEQHGARVENGTVYIGEVLLNKALQTVPANFELQGFDRTVQVGLDHDPVVIPTNGTPMVLNFDGSYSDTNTDDLVNFYKLIDTSDVMQVTSEIAVDVPGLDKTKDSLLAQTALLMKYSHKPIYNILGATIHNYKKGSVAQGVRENIQFAKKYYGYDDKYVIYSGTCVISPLGVGWEAMDHFMGFIKENQPISITACSMTNLTAPGSLYGSVVEDAAAILSIVVLSQLMNPGLPVLYTSLSSMSDMRYVQLCMGAPEFALITLGHIALANFYKIPVRVGGALGDAFKADYQAGVESFVGLMAPMLSQSAMIPHGCGTMGSFNLTSYEKFIMDEETIRYLMRLRRGFEVSDKRKEKALKDITKVGPRGNFLGGRTPKEYREDNYLASEVFNRKGCKENTREEQGDIRDRARKVYDARMEAYELPDTTLEQKKLLNTELPEQYKFDI
notes: expression plasmid of earlier work
Q: For B2, which Km [1, 4] is on record?
A: 15 ± 6 mM

Q: And the kcat [1, 4]?
A: 0.138 ± 0.0183 s⁻¹
